The assay addresses T1, CXCR4-CFP / CXCR4-YFP (human), P61073.
T1 chain: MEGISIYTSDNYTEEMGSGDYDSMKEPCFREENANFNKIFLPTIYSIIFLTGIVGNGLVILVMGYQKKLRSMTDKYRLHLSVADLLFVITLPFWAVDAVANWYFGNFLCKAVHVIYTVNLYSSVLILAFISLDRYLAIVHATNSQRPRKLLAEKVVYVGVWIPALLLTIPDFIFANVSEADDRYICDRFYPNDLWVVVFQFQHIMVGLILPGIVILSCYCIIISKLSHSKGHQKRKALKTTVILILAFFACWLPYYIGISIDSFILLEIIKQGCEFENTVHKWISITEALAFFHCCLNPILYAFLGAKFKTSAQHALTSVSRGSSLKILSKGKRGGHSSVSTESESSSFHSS
Description: FRET or BRET; FLIM (CFP donor lifetime) in live HEK-293T cells transfected with CXCR4-YFP/CXCR4-CFP or 5HTR2B-YFP/CXCR4-CFP (15 µg : 9 µg); CXCR4-CFP alone as reference; untreated or ChOx (25 U/mL, 2 h, 37 °C); without or with CXCL12 (100 nM, 30 min). As to conditions: remark: other sources report otherwise. A general note: In BRET a luciferase serves as donor, and the signal depends on an acceptor being close.

The source of these data is paper PMC12532918.

B1: CXCR4-CFP / CXCR4-YFP, P61073 1-352 (receptor)
chain: T1 chain
Turning to B1, the CFP donor lifetime (CFPτ), ChOx-treated cells (2.03 ns for CXCR4-CFP alone) was determined as 1.82 ns; the CFP donor lifetime (CFPτ), ChOx-treated cells with CXCL12 was determined as 1.75 ns; the CFP donor lifetime (CFPτ), untreated cells (2.03 ns for CXCR4-CFP alone) came out at 1.7 ns; the CFP donor lifetime (CFPτ), untreated cells with CXCL12 worked out at 1.61 ns.
